Data reported in PMC11090974, “Structural basis for the distinct roles of non-conserved Pro116 and conserved Tyr124 of BCH domain of yeast p50RhoGAP” (Cellular and Molecular Life Sciences: CMLS, 2024).
Where “and” joins values, the source holds several entries; their conditions need not be identical. Equal values may be shown once.

Target: the molecule itself
Test: AUC; sedimentation velocity, 2.4 mg/ml, absorbance at 280 nm, 40,000 rpm, 24 °C, analysed with Sedfit

Protein | stoichiometry N
BCH domain of S. pombe p50RhoGAP, wild type (YBCH 1-156 a.a) (domain or fragment, UniProt Q9P3B1 1-156, looked up, S. pombe homolog of p50RhoGAP (SPAC1565.02c protein), BCH domain, residues 1-156; The methods tell cloning, expression and purification only for the P116A mutant (parent construct (His)6-SlyD YBCH in pET32a); also called WT YBCH; yeast BCH) MEHDLERLCFIGGYDNDNDKVIVVVTKNLELFKKYDDINLIKEAYNHVHKLIQKDERYTAVFFAHDSTVFSYLGLSLKAYYGMDYYLHKNVKAVYVIHTDWMSKVAIRTLLSIASPKFTRKFRYLNSISDLNKYIPLSHLKLPPIVYEFDRNVEPA | 2
P116A mutant of the BCH domain of S. pombe p50RhoGAP (YBCH 1-156 a.a) (domain or fragment, UniProt Q9P3B1 1-156, looked up, S. pombe homolog of p50RhoGAP (SPAC1565.02c protein), BCH domain, residues 1-156, Pro116 to Ala; SlyD tag cleaved with PreScission protease; also called P116A-YBCH; YBCH P116A; source: E. coli BL21 (DE3), purified (Ni-NTA, cation exchange, gel filtration)) MEHDLERLCFIGGYDNDNDKVIVVVTKNLELFKKYDDINLIKEAYNHVHKLIQKDERYTAVFFAHDSTVFSYLGLSLKAYYGMDYYLHKNVKAVYVIHTDWMSKVAIRTLLSIASAKFTRKFRYLNSISDLNKYIPLSHLKLPPIVYEFDRNVEPA | 2 and 4
